Test results taken from publication PMC10987540, “Biogenesis of Rab14-positive endosome buds at Golgi–endosome contacts by the RhoBTB3–SHIP164–Vps26B complex” (Cell Discovery, 2024).

Target: T1, GST-SHIP164-CT (residues 1063–1364) (UniProt A0JNW5 1063-1364)
T1 construct: SHIP164, fragment of the C-terminal region, residues 1063-1364; also called purified SHIP164-CT fragment (residues 1063–1364); source: TSsetta (DE3) cells, purified (GST-tag resin)
Assay: pull-down; GST pull-down: purified GST protein on GST tag resin, His fusion protein added, 12 h at 4 °C, HNM buffer (20 mM HEPES pH 7.4, 100 mM NaCl, 5 mM MgCl2, 1 mM DTT, 0.2% NP-40); blot with anti-GST or His antibodies
Conditions: both partners purified

T1 sequence (A0JNW5 1063-1364): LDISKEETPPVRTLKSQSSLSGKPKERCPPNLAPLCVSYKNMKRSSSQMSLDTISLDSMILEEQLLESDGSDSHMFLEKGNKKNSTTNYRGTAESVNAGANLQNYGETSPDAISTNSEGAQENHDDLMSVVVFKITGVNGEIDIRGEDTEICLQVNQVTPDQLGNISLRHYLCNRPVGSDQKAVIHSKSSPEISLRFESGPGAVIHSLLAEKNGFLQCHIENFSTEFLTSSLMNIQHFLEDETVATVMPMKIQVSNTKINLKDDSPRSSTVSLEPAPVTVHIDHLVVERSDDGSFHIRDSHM

- binding result: binds
B1: His-Vps26B-NT (residues 1–160) (domain or fragment, UniProt Q4G0F5 1-160, looked up)
chain: MSFFGFGQSVEVEILLNDAESRKRAEHKTEDGKKEKYFLFYDGETVSGKVSLALKNPNKRLEHQGIKIEFIGQIELYYDRGNHHEFVSLVKDLARPGEITQSQAFDFEFTHVEKPYESYTGQNVKLRYFLRATISRRLNDVVKEMDIVVHTLSTYPELNS
notes: Vps26B N-terminal region, residues 1-160; also called His-Vps26B NT region; purified Vps26B-NT fragment; source: TSsetta (DE3) cells, purified (Ni-NTA resin)
